The results in this text go back to patent US20020132350.

The data set concerns the target MuA transposase (Bacteriophage Mu) (UniProt P07636). Nature of the data set: cell_activity.

Sequence of MuA transposase (Bacteriophage Mu) (P07636 whole entry): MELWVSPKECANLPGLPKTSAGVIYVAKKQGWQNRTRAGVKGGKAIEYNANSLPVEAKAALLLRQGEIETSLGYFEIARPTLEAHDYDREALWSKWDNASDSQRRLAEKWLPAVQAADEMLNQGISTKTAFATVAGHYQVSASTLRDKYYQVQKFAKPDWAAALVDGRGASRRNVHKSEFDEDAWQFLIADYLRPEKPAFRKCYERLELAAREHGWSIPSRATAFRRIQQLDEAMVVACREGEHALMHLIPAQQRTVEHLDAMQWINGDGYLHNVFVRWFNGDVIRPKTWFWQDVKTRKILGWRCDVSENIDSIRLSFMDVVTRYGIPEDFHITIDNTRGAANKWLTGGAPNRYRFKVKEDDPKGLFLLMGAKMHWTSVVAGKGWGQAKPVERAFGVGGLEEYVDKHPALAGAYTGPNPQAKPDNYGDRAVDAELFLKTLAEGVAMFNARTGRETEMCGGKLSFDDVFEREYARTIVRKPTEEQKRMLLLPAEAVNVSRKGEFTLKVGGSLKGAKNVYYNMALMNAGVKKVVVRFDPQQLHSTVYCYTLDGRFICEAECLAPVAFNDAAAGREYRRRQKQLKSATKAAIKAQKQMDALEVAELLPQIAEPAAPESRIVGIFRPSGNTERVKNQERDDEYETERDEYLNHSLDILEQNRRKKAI

For “PC-4 SpeI/BglII fragment (precleaved mini-Mu, inverted R1-R2-R3 ends flanking CAM)”, the activity runs as follows: (induced MuA (0.5 mM IPTG), replicate 204, uninduced 1 and 3) 240 colonies; (preformed CDC (25 mM HEPES pH 7.6, 130 mM NaCl, 10 mM MgCl2, 15% DMSO, 15% glycerol, 30 C 1 h) electroporated into E. coli, 16 blue, 4 white, fragment without …) 20 colonies.

On to “PC-4 SpeI/BglII fragment with attached lacZ-100 ssDNA navigator”, for which the activity (same conditions, 26 blue, 5 white) was determined as 31 colonies.

Take “PC-4 fragment with lacZ-100 navigator via biotin/streptavidin”: the activity (biotin/streptavidin bridge, induced MuA, uninduced 0) amounted to 58 colonies.
